Data as given in patent publication US20230399395A1 (published 2023).
Numbering of substitutions follows the chain as printed.

How the values were obtained:
human IL5 [1] = biological target: T1, human IL5 (human, UniProt P05113 20-134, biotinylated (IL5-biotin) in Examples 2, 5, 6, 9 and 11; site not stated); test: flow cytometry blocking IL5/IL5R
human IL5 [2] = biological target: T1, human IL5; test: BLI
human IL5 [3] = biological target: T1, human IL5; test: ELISA
human IL5 [4] = biological target: T1, human IL5; test: flow

B1: Nb66 (VHH)
VHH: QVQLQESGGGSVQAGGSLRLSCAASGYTVSSNMGWFRQAPGKEREGVAAIYPDGATYYADSVKGRFTISQDNAENTVYLQMNSLKPEDTAMYYCAADLAFNGLGTLALHGYWGQGTQVTVSS
IC50 (human IL5 [1]): 1.17 µg/mL | Kd (human IL5 [2]): < 1 pM | EC50 (human IL5 [3]): 0.0327 µg/mL

B2: HuNb21-Fc (antibody, V domains shown)
VH: EVQLQESGGGLVQPGGSLRLSCAASGYPYSGDYCMGWFRQAPGKEREGVAAFYTGGGSTYYADSVKGRFTISRDNSKNTLYLQMNSLRAEDTAVYYCAADPWSVYGGSCGVKDPNPKAFNYWGQGTLVTVSS
IC50 (human IL5 [4]): 5.96 µg/mL

B3: Nb25 (VHH)
VHH: QVQLQESGGGSVQAGGSLRLSCAASEYTYSRYCMGWFRQVPGKEREGVATIDSDGSTSYADSVKGRFTISKDNAKNTLYLQMNSLKPEDTAMYYCAARYFYIATTGLRPCGEYEYNYWGQGTQVTVSS
IC50 (human IL5 [1]): 2.62 µg/mL | Kd (human IL5 [2]): 491 pM | EC50 (human IL5 [3]): 0.0427 µg/mL

B4: Nb92 (VHH)
VHH: QVQLQESGGGLVQPGGSLRLSCAASGFTFSNYYMSWVRQAPGKGLEWVSSISSDGSNTYYEDSVKGRFTISRDNANNTLYLQMNSLKSEDTALYHCATDLYDDSWYDHWGQGTQVTVSS
IC50 (human IL5 [1]): 2.29 µg/mL | Kd (human IL5 [2]): 385 pM | EC50 (human IL5 [3]): 0.0432 µg/mL

B5: Nb21 (VHH)
VHH: QVQLQESGGGSAQAGGSLKLSCVVSGYPYSGDYCMGWFRQAPGKEREGVAAFYTGGGSTYYADSVKGRFTTSQDNATSTFHLQMNSLKPEDTATYYCAADPWSVYGGSCGVKDPNPKAFNYWGQGTQVTVSS
IC50 (human IL5 [1]): 1.57 µg/mL | Kd (human IL5 [2]): 629 pM | EC50 (human IL5 [3]): 0.0357 µg/mL

B6: HuNb66-Fc (antibody, V domains shown)
VH: B1 VHH with Q1E, S11L, A14P, Q70R, A73S, V77L, K85R, P86A, Q117L
IC50 (human IL5 [4]): 5.73 µg/mL
